Measured values as given in IntAct's records for PubMed 21957239.

B1: Sodium-dependent dopamine transporter (Homo sapiens), Q01959 (parent)
chain: MSKSKCSVGLMSSVVAPAKEPNAVGPKEVELILVKEQNGVQLTSSTLTNPRQSPVEAQDRETWGKKIDFLLSVIGFAVDLANVWRFPYLCYKNGGGAFLVPYLLFMVIAGMPLFYMELALGQFNREGAAGVWKICPILKGVGFTVILISLYVGFFYNVIIAWALHYLFSSFTTELPWIHCNNSWNSPNCSDAHPGDSSGDSSGLNDTFGTTPAAEYFERGVLHLHQSHGIDDLGPPRWQLTACLVLVIVLLYFSLWKGVKTSGKVVWITATMPYVVLTALLLRGVTLPGAIDGIRAYLSVDFYRLCEASVWIDAATQVCFSLGVGFGVLIAFSSYNKFTNNCYRDAIVTTSINSLTSFSSGFVVFSFLGYMAQKHSVPIGDVAKDGPGLIFIIYPEAIATLPLSSAWAVVFFIMLLTLGIDSAMGGMESVITGLIDEFQLLHRHRELFTLFIVLATFLLSLFCVTNGGIYVFTLLDHFAAGTSILFGVLIEAIGVAWFYGVGQFSDDIQQMTGQRPSLYWRLCWKLVSPCFLLFVVVVSIVTFRPPHYGAYIFPDWANALGWVIATSSMAMVPIYAAYKFCSLPGSFREKLAYAIAPEKDRELVDRGEVRQFTLRHWLKV
partner: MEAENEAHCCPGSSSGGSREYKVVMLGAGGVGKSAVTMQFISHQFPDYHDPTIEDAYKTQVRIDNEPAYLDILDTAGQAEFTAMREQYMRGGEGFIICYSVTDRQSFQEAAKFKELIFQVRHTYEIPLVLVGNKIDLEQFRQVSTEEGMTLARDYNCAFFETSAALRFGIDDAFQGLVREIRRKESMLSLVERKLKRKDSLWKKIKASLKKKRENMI

Variants of: B1
Details: with rit2_rat Rit2, Q5BJQ5
F587A;R588A;E589A;K590A was tested, and the “effect of a mutation on the interaction” value was “increasing interaction strength”.
